In publication PMC5137418 (Nucleic Acids Research, 2016):

Molecular target: His-RNMT (human, UniProt O43148 1-476)
Experiment: pull-down; 2 μg GST or GST-RAM with equimolar His-RNMT and glutathione sepharose; 50 mM Tris–Cl pH 7.5, 250 mM NaCl, 0.03% Brij-35, 1 mM DTT, 4°C, 1 h; Coomassie stain
Conditions: both partners purified

His-RNMT, sequence (O43148 whole entry): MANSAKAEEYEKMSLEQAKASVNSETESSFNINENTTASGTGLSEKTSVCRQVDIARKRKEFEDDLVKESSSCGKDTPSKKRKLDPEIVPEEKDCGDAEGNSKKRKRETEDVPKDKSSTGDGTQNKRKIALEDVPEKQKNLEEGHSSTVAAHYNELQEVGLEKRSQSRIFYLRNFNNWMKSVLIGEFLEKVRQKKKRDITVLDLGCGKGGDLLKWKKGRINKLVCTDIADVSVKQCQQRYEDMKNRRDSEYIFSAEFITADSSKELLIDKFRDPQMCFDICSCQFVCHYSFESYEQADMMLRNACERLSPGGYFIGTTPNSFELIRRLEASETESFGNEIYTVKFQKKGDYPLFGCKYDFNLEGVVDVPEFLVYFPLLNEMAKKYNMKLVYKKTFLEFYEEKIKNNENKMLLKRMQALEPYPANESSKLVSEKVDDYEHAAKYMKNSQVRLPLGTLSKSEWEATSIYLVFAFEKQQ

- binding result: binds
B1: GST-RAM 2–45 (domain or fragment, human, UniProt Q9BTL3 2-45, looked up)
chain: TDTAEAVPKFEEMFASRFTENDKEYQEYLKRPPESPPIVEEWNS
